B1: Co-chaperonin GroES (Escherichia coli (strain K12)), P0A6F9 (parent)
chain: MNIRPLHDRVIVKRKEVETKSAGGIVLTGSAAAKSTRGEVLAVGNGRILENGEVKPLDVKVGDIVIFNDGYGVKSEKIDNEEVLIMSESDILAIVEA

Variants of: B1
Conditions: with ch60_ecoli groEL

| Variant | effect of a mutation on the interaction |
| --- | --- |
| MNIRPLHDRVIVKRKEVETKSAGGIVLCGSAAAKSTRGEVLAVGNGRILENGEVKPLDVKVGDIVIFNDGYGVKSEKIDNEEVLIMSESDILAIVEA [T28C] | increasing interaction |
| MNIRPLHDRVIVKRKEVETKSAGGIVLTCSAAAKSTRGEVLAVGNGRILENGEVKPLDVKVGDIVIFNDGYGVKSEKIDNEEVLIMSESDILAIVEA [G29C] | increasing interaction strength |
| MNIRPLHDRVIVKRKEVETKSAGGIVLTGCAAAKSTRGEVLAVGNGRILENGEVKPLDVKVGDIVIFNDGYGVKSEKIDNEEVLIMSESDILAIVEA [S30C] | increasing interaction strength |

— IntAct's records for PubMed 16239229
